One experiment concerns the target Human PSGL-1-Fc (human) (UniProt Q14242). Nature of the experiment: ELISA; binding curves of the VISTA-Fc mutants E125A and F62A (Supplementary Fig. S6D, S6E); conditions not given. Background: An ELISA detects its analyte on a solid surface through an enzyme-linked reagent.
A further experiment addresses hVSIG3-Fc (human) (UniProt Q5DX21). Described as above.

Sequence of hVSIG3-Fc (human) (Q5DX21 23-241): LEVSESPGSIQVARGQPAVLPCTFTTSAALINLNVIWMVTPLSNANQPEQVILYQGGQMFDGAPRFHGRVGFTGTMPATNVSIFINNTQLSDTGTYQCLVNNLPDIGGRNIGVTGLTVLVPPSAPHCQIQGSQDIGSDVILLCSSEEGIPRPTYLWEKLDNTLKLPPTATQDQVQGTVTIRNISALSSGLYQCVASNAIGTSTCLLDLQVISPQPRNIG
Sequence of Human PSGL-1-Fc (human) (Q14242 42-320): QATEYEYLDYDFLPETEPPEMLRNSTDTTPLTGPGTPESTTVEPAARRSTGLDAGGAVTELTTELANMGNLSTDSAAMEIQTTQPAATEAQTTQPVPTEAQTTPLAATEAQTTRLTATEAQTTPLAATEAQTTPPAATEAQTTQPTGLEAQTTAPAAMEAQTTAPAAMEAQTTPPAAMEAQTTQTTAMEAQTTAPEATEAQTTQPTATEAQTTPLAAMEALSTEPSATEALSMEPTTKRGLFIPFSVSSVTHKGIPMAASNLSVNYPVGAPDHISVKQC

For soluble hVISTA-Fc E125A (Fc fusion), the fold affinity over the WT VISTA interaction with Human PSGL-1-Fc (human) is greater than 2 fold.
As to soluble hVISTA-Fc F62A (Fc fusion), the fold affinity over the WT VISTA interaction in the experiment with hVSIG3-Fc (human) is greater than 2 fold.

(Values after article PMC7494997.)
